Experimental data published in PMC4498328.

What was measured:
[1] = molecular target: Barley yellow dwarf virus-GPV readthrough protein (RTP), AcGFP1 fusion (Barley yellow dwarf virus-GPV); assay: co-IP; chemiluminescent Co-IP: pAcGFP1-bait and pProLabel-prey cotransfected into HEK293 cells, lysed after 48 h, anti-GFP polyclonal antibody and protein A/G agarose beads, ProLabel activity read as relative light units; negative control pAcGFP1-Lam/pProLabel-T
[2] = molecular target: Barley yellow dwarf virus-GPV coat protein (CP), AcGFP1 fusion (Barley yellow dwarf virus-GPV); assay: as above

Substance | relative strength of the interaction against the negative control (times the negative control) [1] | relative strength of the interaction against the negative control (times the negative control) [2]
complexin, ProLabel fusion (natural protein) | 5.6 | 
cytochrome P450 4g15, ProLabel fusion (natural protein) | 3.4 | 
cytochrome c oxidase polypeptide IV-like, ProLabel fusion (natural protein) | 4.2 | 
nascent polypeptide-associated complex subunit alpha, ProLabel fusion (natural protein) | 4.9 | 1.6
pancreatic lipase-related protein, ProLabel fusion (natural protein) | 23 | 3
tropomyosin, ProLabel fusion (natural protein) | 8.7 | 
twinstar, ProLabel fusion (natural protein) | 7.1 | 
